In assay [1] the target is Pin1 R14A (SEQ ID NO:2) (human) (UniProt Q13526). Put plainly: cell-based or functional assay.
The target in assay [2] is Pin1 (wild-type, SEQ ID NO:1) (human) (UniProt Q13526). Put plainly: cell-based or functional assay.

With phosphokinase A (PKA) (enzyme), the MALDI-TOF mass increase after PKA treatment was determined as 90 Daltons in assay [1] and 160 Daltons in assay [2].
